Here are results for two molecules from US20070154472A1 (published 2007).

[ ]: non-standard residue; d: D form. The star is where a group is joined. Biotin = O=C1N[C@H]2[C@H](CS[C@H]2CCCCC(=O)*)N1; pY = N[C@@H](Cc1ccc(OP(=O)(O)O)cc1)C(=O)O; βAla = NCCC(=O)O

The target in assay [1] is T1, fully sulfated and glycosylated human PSGL-1 19.ek.Fc fusion protein (human, sulfated tyrosines (y in QATEyEyLDyDFL, corresponding to Tyr46, Tyr48 and Tyr51 of mature human PSGL-1); O-linked glycan; biotinylated in the assays).
T1 construct: also called PSGL-19.ek.Fc; PSGL-19.ed.Fc; not shown: human IgG1 Fc as described in Somers et al., Cell 103:467-479 (2000)
T1 chain: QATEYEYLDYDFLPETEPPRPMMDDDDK
The experiment in a line: SPR (BIAcore 2000), biotinylated PSGL-1 19.ek.Fc on streptavidin chip, antibody 0-100 nM. The procedure:
(§1) Surface plasmon resonance binding analysis. A BIAcore 2000 instrument (BIAcore AB, Uppsala, Sweden) was used to analyze the interactions between the identified antibodies and biotinylated PSGL-1 19.ek.Fc or derived peptides. Binding experiments were performed at 25° C. using streptavidin-coated sensor chips (BIAcore) and HBS-P buffer (20 mM HEPES [pH 7.4], 150 mM NaCl and 0.005% polysorbate 20 v/v) adjusted to 1 mM for both CaCl₂ and MgCl₂. The streptavidin on the sensor surfaces were conditioned with three one-minute injections of a solution containing 1 M NaCl and 25 mM NaOH. The chips were regenerated with 5 μL of 0.1% TFA and equilibrated with running buffer. […] Binding kinetics were analyzed using BIAevaluation software (V2.1; Pharmacia Biosensor, Uppsala, Sweden). The response representing the mass of bound monoclonal antibodies was measured in resonance units (RU). […] Binding kinetics of human anti-PSGL-1 monoclonal antibodies to the immobilized PSGL-1 19.ek.Fc was determined under partial mass transport limitations by triplicate injections at a concentration range (0-100 nM) onto the immobilized biotinlylated PSGL-1 19.ek.Fc peptide at a flow rate of 30 μL/min, following injection for two minutes. Dissociation was monitored for ten minutes at the same flow rate.
(In general: Surface plasmon resonance follows binding to a sensor surface in real time, without labels.)

Assay [2] addresses T2, unglycosylated and unsulfated synthetic peptide 19.ek (human, biotinylated; no sulfate, no glycan).
T2 construct: also called synthetic peptide lacking sulfated tyrosine
The experiment in a line: SPR (BIAcore), biotinylated peptide on streptavidin chip. How it is done:
as §1, with “rate. […]” for “rate.”

The target of assay [3] is T3, BTK peptide (non-phosphorylated).
T3 construct: also called Tufts peptide
T3 peptide: {Biotin-βAla}-AKKVVALYDYMPMN-OH
Nature of the assay: dot blot on P81 phosphocellulose filters. An excerpt:
(§2) PSG2 is Specific for Sulfotyrosine as Compared to Phosphotyrosine. To compare binding to various peptides, a GPG-290 polypeptide (GPG) or a BTK peptide (BTK) (Tufts peptide) (biotin-βAla-[…]-[OH]) (SEQ ID NO:339), one microliter of 1:3 dilutions of compound was spotted onto P81 phosphocellulose filters (Upstate Cell Signaling #20-134). GPG-290 is a dimeric molecule consisting of the N-terminal 290 amino acids of GPIbα fused to a mutated Fc domain of human IgG1. It contains 3 sulfated tyrosine residues at positions 276, 278, and 279. The BTK peptide is biotin-βAla-[…]-[OH] (SEQ ID NO:339). Phospho-BTK contains 2 phosphorylated tyrosine residues. The starting dilution for GPG-290 was 250 ng/μl and for the BTK peptide the starting dilution was 3 μg/μl. Western Blot analysis was performed as follows: filters were blocked for 1 hour in blocking buffer (TBS+0.1% Tween-20 (TBS/T) and 5% nonfat dry milk). Filters were washed in TBS/T and incubated overnight in primary antibody diluted in TBS/T+0.5% BSA. Washed filters were incubated for 1 hour with secondary antibody diluted in blocking buffer (HRP-mouse anti-human IgG4 to detect PSG-2 and HRP-goat anti-mouse IgG+A+M to detect anti-phospho-tyrosine antibody). HRP signal was detected with the SuperSignal Chemiluminescent Substrate (Pierce) and the filters were exposed to X-ray film.

The target in another assay is T4, Phospho-BTK peptide (SMILES …).
T4 peptide: Biotin-[βAla]KKVVAL[pY]D[pY]MPMN-OH
Nature of the assay: dot blot on P81 phosphocellulose filters.
Text: as §2

B1: PSG2 full-length bivalent antibody (human IgG4, lambda) (antibody, V domains shown)
VH: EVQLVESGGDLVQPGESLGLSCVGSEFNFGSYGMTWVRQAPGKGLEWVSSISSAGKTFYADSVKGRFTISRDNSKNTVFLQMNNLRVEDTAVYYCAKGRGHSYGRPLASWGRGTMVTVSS
VL: QAVLTQPSSLSASPGASASLTCTLRSGIDVGPHRIYWFQQKPGSTPQYLLRYKSDSDTQQGSGVPSRFSGSKDASANAGILLISGLQSEDEADYYCMIWHSSAWVFGGGTKLTVLG
notes: also called P5G2; human monoclonal antibody PSG2
Regarding B1, the Ka in assay [1] is around 3.2e+10 M⁻¹. In addition, the binding result is “no binding (tested: 100 nM)” in assay [2], “no binding” in assay [3] and “no binding” in the assay with Phospho-BTK peptide.

B2: PSG1 full-length bivalent antibody (human IgG4, lambda) (antibody, V domains shown)
VH: QVQLQESGAEVKKPGASVKVSCKSSGYTFTAYYMHWLRQAPGQGLEWMGWINPNSGGTNYAQKFQGRVTLTRDTSISTAYMELNSLTSDDTAMYYCARGGPRVSSRPGIGYSDSWGKGTLVTVSS
VL: QTVVLQEPSLTVSPGGTVTLTCASRIGAVTSGHYANWFQQKPGQAPRALIYRTNNKQSWTPARFSGSLLGDRAALTLSGAQPEDEADYYCLLYYGGSWVFGGGTKLTVLG
notes: also called human monoclonal antibody PSG1
In assay [1], B2 yielded a Ka of around 7.5e+09 M⁻¹. In assay [2], the binding result is listed as “no binding (tested: 100 nM)”.
